From the nanobody polyreactivity screen of Harvey et al. (2022)

Experiment: yeast display, Sf9 membrane polyspecificity reagent, FACS + sequencing; frameworks hold sequencing errors
Outline: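 Nanobodies from a synthetic yeast display library (Saccharomyces cerevisiae BJ5465), induced 36–48 hours with galactose, were stained 1 hour at 4 °C with 10% biotinylated, detergent-solubilized Sf9 membrane reagent, enriched on streptavidin microbeads, then FACS-sorted. Anti-HA (expression) and streptavidin (reagent binding) fluorescence set low and high (top ~1%) gates. Polyreactivity labels come from the gate of origin. Genes were colony-PCR amplified, MiSeq 2 × 250 sequenced and filtered by CDR length.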
With “QVQLVESGGGLVQAGGSLRLSCAASGRTFYSYAMGWYRQAPGKERELVAAISSSSGRTYYADSVKGRFTISRDNAKNTVYLQMNSLKPEDTAVYYCNRAGGYRTTFYSWGQGTQVTVSS” the “polyreactivity (PSR sort gate)” value was “high polyreactivity”. In the case of “QVQLVESGGGLVQAGGSLRLSCAASGRTFYSYAMGWYRQAPGKERELVASITSTGSTYYADSVKGRFTISRDNAKNTVYLQMNSLKPEDTAVYYCAARRQPRYSQRSTYYYWGQGTQVTVSS”, the “polyreactivity (PSR sort gate)” value is reported as “high polyreactivity”. With “QVQLVESGGGLVQAGGSLRLSCAASGRTFYSYAMGWYRQAPGKEWVLVAAISKRGTSTYYADSVKGRFTISRDNAKNTVYLQMNTLKPEDTAVYYCAAAYRGREVEYTSWGQGTQVTVSS” the “polyreactivity (PSR sort gate)” value was “high polyreactivity”. For “QVQLVESGGGLVQAGGSLRLSCAASGRTFYSYAMVWYRQAPGKERELVAAISAGGSTYYADSVKGRFTSSRDNAMTTLYLQMNSLKPEDTAVYYCADTYSYYYVRYHYWGQGTQVTVSS”, the “polyreactivity (PSR sort gate)” value was “high polyreactivity”. With “QVQLVESGGGLVQAGGSLRLSCAASGRTFYSYVMGWYRQSPGKERELVAAINNSGGGTYYADSVKGRFTISRDNAKNTVYLQMNSLKPEDTAVYYCNAVGGYWFDYWGQGTQVTVSS” the “polyreactivity (PSR sort gate)” value was “high polyreactivity”. In the case of “QVQLVESGGGLVQAGGSLRLSCAASGRTFYTNAMGWYRQAPGKERELVAAIDGGGTTYYADSVKGRFTISRDNAKNTVYLQMNSLKPEDTAVYYCNADVFGLKQTAFDYWGQGTQVTVSS”, the “polyreactivity (PSR sort gate)” value is reported as “low polyreactivity”. With “QVQLVESGGGLVQAGGSLRLSCAASGRTFYTNAMGWYRQAPGKERELVAVISRGGTTYYADSVKGRFTISRDNAKYTVYFQMNSLKPEDTAVYYCAKQRPSGDSSSQLGSWGQGTQVTVSS” the “polyreactivity (PSR sort gate)” value was “low polyreactivity”. For “QVQLVESGGGLVQAGGSLRLSCAASGRTFYTVYAMGWYRQAPGKERELVAAITKDGTTTYYADSVKGRFTISRDNAKNTVYLQMNSLKPEDTAVYYCNADVCQPWGGGEYNYWGQGTQVTVSS”, the “polyreactivity (PSR sort gate)” value was “high polyreactivity”. For “QVQLVESGGGLVQAGGSLRLSCAASGRTFYVNAMGWYRQAPGKEREFVATITRTGGDTYYADSVKGRFTISRDNAKNTVYLQMNSHKPEDTAVFYCNAEGYTVKYWYSRYDYWGQGTQVTVSS”, the “polyreactivity (PSR sort gate)” value was “high polyreactivity”. For “QVQLVESGGGLVQAGGSLRLSCAASGRTFYVNAMGWYRQAPGKERELVAAIRYSDGRTYYADSVKGRFTISRDNAKNTVYLQMNSLKPEDTAVYYCAVGSRSWPYDYWGQGTQVTVSS”, the “polyreactivity (PSR sort gate)” value was “high polyreactivity”. For “QVQLVESGGGLVQAGGSLRLSCAASGRTFYVYAMGWYRHAPGKERELVASIRRSGGITYYADSVKGRFTISRDNAKNTVYLQMNSLKPEDTAVYYCNARRGPGRREYDYWGQGTQVTLSS”, the “polyreactivity (PSR sort gate)” value was “high polyreactivity”. In the case of “QVQLVESGGGLVQAGGSLRLSCAASGRTFYVYAMGWYRQAPGKERELVAAISQDDGGTYYADSVKGRFTISRDNAKNTVYLQMNSLKPEDTAVYYCAAKEWRYGYDYGYWGQGTQVTLSS”, the “polyreactivity (PSR sort gate)” value is reported as “low polyreactivity”. With “QVQLVESGGGLVQAGGSLRLSCAASGRTFYVYAMGWYRQAPGKERELVASISWIGDDTYYADSVKGRFTISRDNAKNTVYLQMNSLKPEDTAVYYCAVLVLGDYGYEYWGQGTQVTVSS” the “polyreactivity (PSR sort gate)” value was “high polyreactivity”. For “QVQLVESGGGLVQAGGSLRLSCAASGRTFYVYDMGWYRQAPGKERELVAAISTNYADSVKGRFTISRDNAKNTVYLQMNSLNPEDTAVYYCAADDIHYVIHAYYSSGVDYWGQGTQVTVSS”, the “polyreactivity (PSR sort gate)” value was “low polyreactivity”. With “QVQLVESGGGLVQAGGSLRLSCAASGRTFYVYDMGWYRQAPRKEREFVATITARGGSTSYADSVKGRFTISRDNAKNTVYLQMNILKPEDTAVYYCNADIHVYPTRTRYYYWGQGTQVTVSS” the “polyreactivity (PSR sort gate)” value was “low polyreactivity”. With “QVQLVESGGGLVQAGGSLRLSCAASGRTFYVYTMGWYRQAPGKERELVAAITTGGSTNYADSVKGRFTISRDNAKNTVYLQMNSLKPEDTAVYYCAARVSTVFKRYYYWGQGTQVTVSS” the “polyreactivity (PSR sort gate)” value was “high polyreactivity”. With “QVQLVESGGGLVQAGGSLRLSCAASGRTFYVYTMGWYRQAPGKERELVAANTSGGSTNYADSVKGRFTISRDNAKNTVYLQMNSLKPEDTAVYYCAARVSTVFKRYYYWGQGTQVTVSS” the “polyreactivity (PSR sort gate)” value was “high polyreactivity”. For “QVQLVESGGGLVQAGGSLRLSCAASGRTFYWYAMGWYRQAPGKERELVAAISSGGSTYYADSVKGRFTISRDNAKNTVYLQMNSLKPEDTAVYYCAAVTPSGAHRSAYHPISDYWGQGTQVTVSS”, the “polyreactivity (PSR sort gate)” value was “low polyreactivity”. With “QVQLVESGGGLVQAGGSLRLSCAASGRTFYYAMGWYRQAPGKERYADSVKGRVTISRDNAKNTVYLQMNSLKPEETAVYYCAAKVPEPPSLDESDYWGQGTQVTVSS” the “polyreactivity (PSR sort gate)” value was “low polyreactivity”. With “QVQLVESGGGLVQAGGSLRLSCAASGRTFYYNAKGWYRQAPGKERELVARITSSGGSTYYADSVKGRFTISRDTSKNTVFLQMNSLKPEDTAVYYCAAGRSRYLWFGRDFDYWGQGTQVTVSS” the “polyreactivity (PSR sort gate)” value was “low polyreactivity”. For “QVQLVESGGGLVQAGGSLRLSCAASGRTFYYNGMGWYRQAPGKERELVATITNGGSTNYADSVKGRFTISRDNAKITVYLQMNSLKPEETAVYYCAKTLASDCYDYWGQGTQVTVSS”, the “polyreactivity (PSR sort gate)” value was “low polyreactivity”. For “QVQLVESGGGLVQAGGSLRLSCAASGRTFYYYAMGWYRQAPGKERELVAAISRSGGITYYADSVKGRFTISRDNAKNTVYLQMNSLKPEDTAVYYCAADAWFSLRYAPRSYAYGYWGQGTQVTVSS”, the “polyreactivity (PSR sort gate)” value was “low polyreactivity”. With “QVQLVESGGGLVQAGGSLRLSCAASGRTFYYYAMGWYRQAPGKERELVAAITGSGANTYYADSVKGRFTISRDNAKNTVYLQMKSLKPEDTAVYYCNKYRTLRNGWGSGYYYWGQGTQVTVSS” the “polyreactivity (PSR sort gate)” value was “high polyreactivity”. With “QVQLVESGGGLVQAGGSLRLSCAASGRTFYYYAMGWYRQAPGKERELVAGINSGGSTNYADSVKGRFTISRDNAKNTVYLQMNSLKPEDTAVYYCAVEDLVSEGWGWYKEMDYWGQGTQVTVSS” the “polyreactivity (PSR sort gate)” value was “low polyreactivity”. For “QVQLVESGGGLVQAGGSLRLSCAASGRTFYYYAMGWYRQAPGKERELVARIRSTGRTSYADSVKGRFTISRDNAKNTVYLQMNRLKPEDTAVYYCAAKYSSTAWSRRKFDYWGQGTQVTVSS”, the “polyreactivity (PSR sort gate)” value was “high polyreactivity”. With “QVQLVESGGGLVQAGGSLRLSCAASGRTFYYYAMGWYRQAPGKERELVASISRRGGSTYYADSVKGRFTISRDNAKNTVYLQMNSLKPEDTAVYYCAASHYHGYSLGYDYWGQGTQVTVSS” the “polyreactivity (PSR sort gate)” value was “high polyreactivity”. In the case of “QVQLVESGGGLVQAGGSLRLSCAASGRTFYYYAMGWYRQAPGKERELVATITSSGGSTYYADSVKGRFTISRDNAKNTVYLQINSLIPEDTAVYYCARTYTYKGGNTHSRWYYYWGQGTHVTVSS”, the “polyreactivity (PSR sort gate)” value is reported as “high polyreactivity”. In the case of “QVQLVESGGGLVQAGGSLRLSCAASGRTFYYYAMGWYRQAPGKEWELVAAIRGGGGSTYADSVKGRFTISRDNAKNTVYLQMNSLKPEDTAVYYCNVVRTGRYPGFLTFDYWGQGTQVTVSS”, the “polyreactivity (PSR sort gate)” value is reported as “high polyreactivity”. With “QVQLVESGGGLVQAGGSLRLSCAASGRTFYYYAMGWYRQAPGTERELLAAISWSVGRTYYADSVKGRFTISRDNAKNTVYLQMNSLKPEDTAVYFCNAEPPRGYTVSSGREMVYWGQGTQVTGSS” the “polyreactivity (PSR sort gate)” value was “low polyreactivity”. For “QVQLVESGGGLVQAGGSLRLSCAASGRTFYYYARGWYRQAPGKERELVAAISSRGGSTYYADSVKGRFTISRDNAKNTVYLQMNSLKPEDTAVYYCAAERYFVLYRYYSYAYYYWGQGTQVTVSS”, the “polyreactivity (PSR sort gate)” value was “high polyreactivity”. For “QVQLVESGGGLVQAGGSLRLSCAASGRTFYYYSMGWYIQAPGKEREFVAAISYRGGSTYYADSVKGRFTITRDNAKNTVYFQMNSLNPEDTAVYYCAAGLVYLFISHNDYWGQGTQVTVSS”, the “polyreactivity (PSR sort gate)” value was “low polyreactivity”.
